Measurements from article PMC11417369, “DNA sequence and chromatin differentiate sequence-specific transcription factor binding in the human malaria parasite Plasmodium falciparum”.
Residue numbers refer to the chain shown, from its start.

T1: AP2-G D1 (Plasmodium falciparum, UniProt Q8I5I9 2123-2245)
T1 sequence: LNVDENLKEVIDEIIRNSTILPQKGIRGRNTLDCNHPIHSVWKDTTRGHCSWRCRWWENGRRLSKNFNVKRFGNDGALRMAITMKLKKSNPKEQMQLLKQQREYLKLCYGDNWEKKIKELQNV

B1: XGTACX_negctrl_site26 (dsDNA)
DNA 1: TATAATTTTTTTGAATTATATATATATATATATAAT
DNA 2: ATTATATATATATATATATAATTCAAAAAAATTATA
B2: XGTACX_negctrl_site591 (dsDNA)
DNA 1: TTTTTATATAACCTTCTTAATTCTTTTTTTTTTTTT
DNA 2: AAAAAAAAAAAAAGAATTAAGAAGGTTATATAAAAA
B3: XGTACX_negctrl_site102 (dsDNA)
DNA 1: TTCTTTTTATTTATATTTTCCCCTCTCTATAGCTAT
DNA 2: ATAGCTATAGAGAGGGGAAAATATAAATAAAAAGAA
B4: XGTACX_negctrl_site183 (dsDNA)
DNA 1: TATTTTTCTTTTTAAAAATATATCACATGAACATTA
DNA 2: TAATGTTCATGTGATATATTTTTAAAAAGAAAAATA
B5: XGTACX_negctrl_site160 (dsDNA)
DNA 1: ACATGCCAAAATCTAATACAATAATAATAAAAAAAA
DNA 2: TTTTTTTTATTATTATTGTATTAGATTTTGGCATGT
B6: XGTACX_negctrl_site600 (dsDNA)
DNA 1: TTGAAATATACGTAAGTAAATTTCATTTGGTTGTGT
DNA 2: ACACAACCAAATGAAATTTACTTACGTATATTTCAA
B7: XGTACX_negctrl_site501 (dsDNA)
DNA 1: AAATTATAAAAAAAAAAAAAAAAAAAAAAAAAAAAA
DNA 2: TTTTTTTTTTTTTTTTTTTTTTTTTTTTTATAATTT
B8: XGTACX_negctrl_site343 (dsDNA)
DNA 1: B7 DNA 1 with A3T, T4A, T5A
DNA 2: B7 DNA 2 with A32T, A33T, T34A
B9: XGTACX_negctrl_site614 (dsDNA)
DNA 1: TAATTCGCAAAAGAAAGAAATTAAGAAAAAGAAAAA
DNA 2: TTTTTCTTTTTCTTAATTTCTTTCTTTTGCGAATTA
B10: XGTACX_negctrl_site317 (dsDNA)
DNA 1: TTATATTCTTTTCTCTTTCTACTTTTTTTTTTTTTT
DNA 2: AAAAAAAAAAAAAAGTAGAAAGAGAAAAGAATATAA
B11: XGTACX_negctrl_site279 (dsDNA)
DNA 1: TTTTTACTATAAGGGGAAAAAAAAAAAAATAATATA
DNA 2: TATATTATTTTTTTTTTTTTCCCCTTATAGTAAAAA
B12: XGTACX_negctrl_site190 (dsDNA)
DNA 1: AATAGAAACATTTTACATGTATATATAATTTTTTTT
DNA 2: AAAAAAAATTATATATACATGTAAAATGTTTCTATT
B13: XGTACX_negctrl_site244 (dsDNA)
DNA 1: AAAAATATGAAGACACAATATAGAAATAAAAATATA
DNA 2: TATATTTTTATTTCTATATTGTGTCTTCATATTTTT
B14: XGTACX_negctrl_site224 (dsDNA)
DNA 1: TTGTTTCTTAAATTATTTATTTTATATTAAAAAAAA
DNA 2: TTTTTTTTAATATAAAATAAATAATTTAAGAAACAA
B15: XGTACX_negctrl_site277 (dsDNA)
DNA 1: TTATTTTACTTTTATGCAACTAAAAATATTGCTATA
DNA 2: TATAGCAATATTTTTAGTTGCATAAAAGTAAAATAA
B16: XGTACX_negctrl_site200 (dsDNA)
DNA 1: GTCCTTATGGATGATAAATTATTTTAAATATTCTAT
DNA 2: ATAGAATATTTAAAATAATTTATCATCCATAAGGAC
B17: XGTACX_negctrl_site149 (dsDNA)
DNA 1: AGAATTTAGAAACAATGTTGTATATGTAATACCTTT
DNA 2: AAAGGTATTACATATACAACATTGTTTCTAAATTCT
B18: XGTACX_negctrl_site181 (dsDNA)
DNA 1: ATTCGTAGTTTTATGAATTAATATAATAAAAATTAA
DNA 2: TTAATTTTTATTATATTAATTCATAAAACTACGAAT
B19: XGTACX_negctrl_site39 (dsDNA)
DNA 1: TTTTTAATTATCTTTTCCCATGGTTTCTCCGTTTTT
DNA 2: AAAAACGGAGAAACCATGGGAAAAGATAATTAAAAA
B20: XGTACX_negctrl_site369 (dsDNA)
DNA 1: TTTTTTTTTAATAAAATTATAATAAATATGAAATTA
DNA 2: TAATTTCATATTTATTATAATTTTATTAAAAAAAAA
B21: XGTACX_negctrl_site595 (dsDNA)
DNA 1: TTATATTATGTTCAATCAAAAATTATTTTTAAAAAA
DNA 2: TTTTTTAAAAATAATTTTTGATTGAACATAATATAA
B22: XGTACX_negctrl_site395 (dsDNA)
DNA 1: TTATTAGAGATGTTAAGATATAGGGATAATTTCGAT
DNA 2: ATCGAAATTATCCCTATATCTTAACATCTCTAATAA
B23: XGTACX_negctrl_site421 (dsDNA)
DNA 1: TATAAGAGAAGAAGAAAAAAAAGGTTTCTATAGAAA
DNA 2: TTTCTATAGAAACCTTTTTTTTCTTCTTCTCTTATA
B24: XGTACX_negctrl_site461 (dsDNA)
DNA 1: ATGAATTTTTCTCTACAAAAGGATATAATAAAAATA
DNA 2: TATTTTTATTATATCCTTTTGTAGAGAAAAATTCAT
B25: XGTACX_negctrl_site187 (dsDNA)
DNA 1: AATATATATATATATATATATATTTCAATATATAAA
DNA 2: TTTATATATTGAAATATATATATATATATATATATT
B26: XGTACX_negctrl_site385 (dsDNA)
DNA 1: TACTTCTCATTTGTTGTTGTATTTTAGGCATACCCT
DNA 2: AGGGTATGCCTAAAATACAACAACAAATGAGAAGTA
B27: XGTACX_negctrl_site188 (dsDNA)
DNA 1: AAAGTATAACGGATACCATTTATGTGATTATTTTGT
DNA 2: ACAAAATAATCACATAAATGGTATCCGTTATACTTT
B28: XGTACX_negctrl_site14 (dsDNA)
DNA 1: AAATAAAAAGAAAAGAAAAAGAAAATAAAAAGAGAA
DNA 2: TTCTCTTTTTATTTTCTTTTTCTTTTCTTTTTATTT
B29: XGTACX_negctrl_site283 (dsDNA)
DNA 1: TACTAAAATATATATATGCAACATGAGATATTCAAC
DNA 2: GTTGAATATCTCATGTTGCATATATATATTTTAGTA
B30: XGTACX_negctrl_site493 (dsDNA)
DNA 1: CATATATAAATATAAATATATATATATATATATATG
DNA 2: B30 DNA 1 with A9T, A15T, A22T, A28T
B31: XGTACX_negctrl_site291 (dsDNA)
DNA 1: TTTTTTATATTTAAACTTCACATGGTTTTCATTTAT
DNA 2: ATAAATGAAAACCATGTGAAGTTTAAATATAAAAAA
B32: XGTACX_negctrl_site180 (dsDNA)
DNA 1: TACATATAAATATATAAATATAAATAAATAAATAAA
DNA 2: TTTATTTATTTATTTATATTTATATATTTATATGTA
B33: XGTACX_negctrl_site331 (dsDNA)
DNA 1: AAGGAATAAAATTTAGAAGACAATTTTATTTCAGTA
DNA 2: TACTGAAATAAAATTGTCTTCTAAATTTTATTCCTT
B34: XGTACX_negctrl_site507 (dsDNA)
DNA 1: ATAAAAAATAAATATATACATACATACATACATATA
DNA 2: TATATGTATGTATGTATGTATATATTTATTTTTTAT
B35: XGTACX_negctrl_site66 (dsDNA)
DNA 1: TTTTGAGAAAAAATAAAATAATAAATAAAAATACAT
DNA 2: ATGTATTTTTATTTATTATTTTATTTTTTCTCAAAA
B36: XGTACX_negctrl_site448 (dsDNA)
DNA 1: ATATAAGATTACAAAAATTATGTGTAAATATTTAAT
DNA 2: ATTAAATATTTACACATAATTTTTGTAATCTTATAT
B37: XGTACX_negctrl_site572 (dsDNA)
DNA 1: TTAGGAAGCTCACAAAATAAAGTGAAAAGAAGAAAA
DNA 2: TTTTCTTCTTTTCACTTTATTTTGTGAGCTTCCTAA
B38: XGTACX_negctrl_site268 (dsDNA)
DNA 1: AAAACAAATTTTAATGAGAATATGAAAAAAAAATAT
DNA 2: ATATTTTTTTTTCATATTCTCATTAAAATTTGTTTT
B39: XGTACX_negctrl_site374 (dsDNA)
DNA 1: AATAAACATTATTTTCGTATTCCAATTCTTTTTTTT
DNA 2: AAAAAAAAGAATTGGAATACGAAAATAATGTTTATT
B40: XGTACX_negctrl_site546 (dsDNA)
DNA 1: AGCCCTTTTTTTTTTTAGAATATTGCATAATTATAT
DNA 2: ATATAATTATGCAATATTCTAAAAAAAAAAAGGGCT
B41: XGTACX_negctrl_site88 (dsDNA)
DNA 1: AAGGGGAGAAAAATAAACGAAATATATACATACATA
DNA 2: TATGTATGTATATATTTCGTTTATTTTTCTCCCCTT
B42: XGTACX_negctrl_site35 (dsDNA)
DNA 1: TTTTGACTAATATAATATGTTAAGAATTAATAAATA
DNA 2: TATTTATTAATTCTTAACATATTATATTAGTCAAAA
B43: XGTACX_negctrl_site451 (dsDNA)
DNA 1: AACAAATAAAAAAAAATAAAAATAAAAATAAAAAAA
DNA 2: TTTTTTTATTTTTATTTTTATTTTTTTTTATTTGTT
B44: XGTACX_negctrl_site524 (dsDNA)
DNA 1: AAAACTATTAATGCAAAAAATAAAATATAATAATAA
DNA 2: TTATTATTATATTTTATTTTTTGCATTAATAGTTTT

Target: T1, AP2-G D1
Test: gcPBM; about 25 ug protein; PBS, 1% milk, 0.2 mg/ml BSA, salmon testes DNA, 0.03% Triton X-100
Conditions: tags: N-terminal GST (pGEX-4T-1), kept; label: surface-attached array probe

Binder | binding signal
B1 | 9.84 ln median PBM intensity, better of two orientations
B2 | 9.85 ln median PBM intensity, better of two orientations
B3 | 9.73 ln median PBM intensity, better of two orientations
B4 | 9.84 ln median PBM intensity, better of two orientations
B5 | 9.83 ln median PBM intensity, better of two orientations
B6 | 9.84 ln median PBM intensity, better of two orientations
B7 | 9.83 ln median PBM intensity, better of two orientations
B8 | 9.85 ln median PBM intensity, better of two orientations
B9 | 9.81 ln median PBM intensity, better of two orientations
B10 | 9.85 ln median PBM intensity, better of two orientations
B11 | 9.81 ln median PBM intensity, better of two orientations
B12 | 9.8 ln median PBM intensity, better of two orientations
B13 | 9.84 ln median PBM intensity, better of two orientations
B14 | 9.8 ln median PBM intensity, better of two orientations
B15 | 9.82 ln median PBM intensity, better of two orientations
B16 | 9.79 ln median PBM intensity, better of two orientations
B17 | 9.82 ln median PBM intensity, better of two orientations
B18 | 9.77 ln median PBM intensity, better of two orientations
B19 | 9.84 ln median PBM intensity, better of two orientations
B20 | 9.84 ln median PBM intensity, better of two orientations
B21 | 9.82 ln median PBM intensity, better of two orientations
B22 | 9.76 ln median PBM intensity, better of two orientations

Binder | binding signal
B23 | 9.78 ln median PBM intensity, better of two orientations
B24 | 9.76 ln median PBM intensity, better of two orientations
B25 | 9.75 ln median PBM intensity, better of two orientations
B26 | 9.85 ln median PBM intensity, better of two orientations
B27 | 9.78 ln median PBM intensity, better of two orientations
B28 | 9.83 ln median PBM intensity, better of two orientations
B29 | 9.82 ln median PBM intensity, better of two orientations
B30 | 9.85 ln median PBM intensity, better of two orientations
B31 | 9.85 ln median PBM intensity, better of two orientations
B32 | 9.74 ln median PBM intensity, better of two orientations
B33 | 9.81 ln median PBM intensity, better of two orientations
B34 | 9.8 ln median PBM intensity, better of two orientations
B35 | 9.8 ln median PBM intensity, better of two orientations
B36 | 9.81 ln median PBM intensity, better of two orientations
B37 | 9.76 ln median PBM intensity, better of two orientations
B38 | 9.74 ln median PBM intensity, better of two orientations
B39 | 9.74 ln median PBM intensity, better of two orientations
B40 | 9.79 ln median PBM intensity, better of two orientations
B41 | 9.83 ln median PBM intensity, better of two orientations
B42 | 9.84 ln median PBM intensity, better of two orientations
B43 | 9.85 ln median PBM intensity, better of two orientations
B44 | 9.83 ln median PBM intensity, better of two orientations
